Reference: the supplement of paper PMC10567573

B1: TMEM106C (parent)
chain: FTGRDSITCLTCQGTGYIPTEQVN

Variants of: B1
Test: protein stability index of a GFP-peptide fusion (GPS, HEK-293T) (PSI 1-6); higher = more stable
Conditions: c terminus: a fixed tail appended
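Further: lentivirally expressed fusions sorted by FACS into six bins by GFP to DsRed ratio, PSI derived from sequencing read proportions per bin multiplied by bin number.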

Protein stability index: each site, then its substitutions
F1: G 4.15 | I 3.94 | L 4.16 | K 4.29 | T 4.76 | P 4.63 | R 4.35 | C 3.92 | A 4.7 | E 4.7 | N 4.48 | H 4.52 | Q 4.65 | Y 1.99 | D 4.88 | W 4.06 | S 4.33 | M 4.77 | V 4.43
C9: K 2.17 | E 2.73 | T 1.82 | L 2.04 | V 1.9 | Q 1.68 | I 3.25 | N 1.94 | M 2.88 | P 2.1 | R 1.52 | S 2.28 | A 2 | F 2.86 | Y 2.75 | G 1.75 | D 3.16 | H 1.73
R4: M 2.33 | W 2.62 | E 2.59 | H 1.98 | A 1.86 | Q 2.46 | F 2.52 | I 2.48 | K 2.12 | S 3.04 | L 1.81 | N 2.8 | V 1.7 | P 2.41 | Y 1.65 | G 1.74 | C 2.32 | T 1.87 | D 3.14
T8: K 1.79 | M 2.4 | V 2.09 | I 1.82 | L 2 | W 2.22 | D 2.37 | P 1.9 | S 2.4 | C 2.11 | F 3.56 | N 1.92 | H 2.28 | Q 2.37 | R 1.41 | A 2.91 | E 1.84 | Y 2.15
D5: A 1.94 | N 1.56 | T 2.15 | I 2.65 | Q 2.17 | K 1.84 | G 1.49 | C 3.35 | M 2.73 | S 2.29 | F 3 | H 2.82 | E 1.96 | V 4.33 | L 2.66 | P 2.12 | R 1.87 | W 3.14 | Y 3.35
G14: W 1.69 | V 2.35 | K 1.66 | Q 1.99 | F 2.99 | T 2.33 | R 2.24 | L 2.8 | M 2.91 | I 2.53 | E 2.28 | S 1.58 | H 1.88 | P 1.29 | N 1.74 | D 1.56 | A 1.5 | C 1.89
T2: C 2.63 | K 4.3 | E 4.48 | L 2.61 | S 2.07 | M 2.95 | F 3.19 | D 4.1 | G 2.84 | R 4.04 | H 3.35 | Q 2.91 | I 1.97 | N 3.32 | Y 3.3 | V 2.87 | P 2.82 | W 2.31 | A 2.81
S6: Q 2.05 | E 2.73 | F 2.38 | D 2.58 | K 2.34 | N 2.58 | Y 2.04 | A 2.27 | C 1.99 | G 1.9 | V 2.5 | R 2.45 | T 2.43 | I 2.92 | P 2.18 | H 2.43 | M 1.79 | L 2.16
I7: W 3.32 | C 1.73 | H 2.09 | N 2.15 | E 2.89 | V 1.77 | S 2.39 | G 2.16 | D 2.83 | F 1.6 | T 2.78 | P 2.23 | M 1.76 | K 2.32 | L 2.07 | Q 2.5 | Y 2.68 | A 2.22 | R 2.15
Q13: M 1.75 | N 2.39 | E 1.95 | L 2.13 | V 2 | P 1.94 | C 1.53 | T 2.71 | I 2.35 | F 2.17 | Y 2.38 | H 2.09 | R 2.18 | W 2.52 | G 2.28 | D 1.83 | K 1.96 | S 1.92 | A 2.23
G16: F 2.71 | W 2.98 | S 2.05 | D 1.56 | H 2.01 | T 2.04 | P 3.09 | C 1.83 | R 2.21 | A 1.92 | Q 1.6 | I 2.94 | N 1.49 | L 2.13 | K 1.56 | Y 2.08 | V 1.85 | E 1.7 | M 2.8
I18: F 1.86 | K 1.82 | A 1.93 | Q 2 | D 1.96 | M 2.78 | R 2.57 | S 2.09 | H 2.4 | L 2.55 | N 1.61 | G 1.48 | E 1.53 | C 1.91 | P 1.58
T15: N 1.62 | F 2.26 | L 1.89 | Y 2.52 | S 1.56 | C 2.26 | Q 1.53 | H 2.09 | V 2.04 | I 2.16 | D 1.81 | E 1.64 | G 1.43 | A 2.12 | W 2.34 | M 2.59 | R 2.26 | K 2.12 | P 2.1
C12: V 1.83 | T 1.63 | A 2.17 | D 2.41 | M 2.09 | Q 1.95 | R 1.85 | S 2 | E 2.18 | I 2.4 | N 2.18 | K 2 | Y 2.06 | L 1.79 | H 1.98 | G 2.04 | F 2.34 | P 1.68 | W 2.51
T11: K 1.7 | F 2.85 | S 2.01 | P 1.55 | I 1.52 | H 2.06 | Q 1.85 | D 2.42 | M 1.77 | A 2.32 | G 1.64 | L 1.66 | V 2.66 | E 2.01 | W 2.97 | C 1.86 | R 1.97 | N 1.86 | Y 2.07
L10: Q 3.17 | H 2.84 | E 3.8 | M 1.91 | Y 3.42 | V 2.2 | W 2.01 | I 1.98 | T 2.65 | G 2.02 | F 3 | D 3.96 | R 2.36 | N 2.77 | K 2.7 | S 2.85 | C 1.99 | A 2.29 | P 4.51
Y17: V 2.55 | N 1.93 | E 2.2 | H 2.61 | T 2.16 | D 2.17 | I 1.92 | W 3.54 | C 2.13 | F 1.64 | R 2.34 | Q 1.79 | P 1.91 | L 1.84 | G 1.47 | M 1.77 | K 1.94 | S 1.68 | A 1.8
G3: F 1.7 | D 1.85 | Y 2.45 | S 1.46 | L 3.45 | C 1.89 | Q 2.09 | V 2.99 | E 2.7 | W 1.48 | P 2.76 | T 2.04 | M 2.81 | I 2.33 | K 3.49 | H 1.7 | A 2.79 | R 2.84 | N 2.12
